US20230071371A1 (Scripps Research, published 2023)
Bridges are numbered along the chain shown (N, C = ends). Where no end group is shown, it is not given here. L1 = not defined here; L3 = not defined here; L4 = not defined here; L5 = not defined here

T1: GPR10 (UniProt P49683 1-370, limits assumed)
T1 sequence (looked up): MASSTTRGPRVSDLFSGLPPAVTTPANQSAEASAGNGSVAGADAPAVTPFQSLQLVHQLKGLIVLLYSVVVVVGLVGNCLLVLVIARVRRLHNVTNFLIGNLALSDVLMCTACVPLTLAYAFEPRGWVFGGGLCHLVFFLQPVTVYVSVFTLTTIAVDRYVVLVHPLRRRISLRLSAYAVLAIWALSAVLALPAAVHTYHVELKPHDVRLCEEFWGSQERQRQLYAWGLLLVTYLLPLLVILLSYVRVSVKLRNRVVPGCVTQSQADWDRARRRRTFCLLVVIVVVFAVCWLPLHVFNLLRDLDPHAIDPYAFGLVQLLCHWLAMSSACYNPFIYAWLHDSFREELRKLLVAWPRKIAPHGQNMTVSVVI


Each binder was assayed against T1, GPR10 (assay: cell-based or functional assay).

Binder | GPR10 EC50
TPDICPAWYTGCGIRPVGRF-NH2 (linker 5-12 via L5; reading uncertain) [Conjugate 221] | 840 nM
TPDINPCWYTGRGCRPVGRF-NH2 (linker 7-14 via L4; reading uncertain) [Conjugate 223] | > 1000 nM
TPDICPAWYTGCGIRPVGRF-NH2 (linker 5-12 via L1; reading uncertain) [Conjugate 207] | 13 nM
TPDINPAWCTGRGIRCVGRF-NH2 (linker 9-16 via L1; reading uncertain) [Conjugate 211] | 160 nM
TPDCNPAWYTCRGIRPVGRF-NH2 (linker 4-11 via L4; reading uncertain) [Conjugate 217] | 77 nM
TCDINPAWCTGRGIRPVGRF-NH2 (linker 2-9 via L1; reading uncertain) [Conjugate 204] | 12 nM
TPDCNPAWYTCRGIRPVGRF-NH2 (linker 4-11 via L1; reading uncertain) [Conjugate 206] | 7.3 nM
TPDICPAWYTGCGIRPVGRF-NH2 (linker 5-12 via L3; reading uncertain) [Conjugate 219] | 25 nM
TPDINPAWYCGRGIRPCGRF-NH2 (linker 10-17 via L1; reading uncertain) [Conjugate 212] | > 10000 nM
TCDINPAWCTGRGIRPVGRF-NH2 (linker 2-9 via L4; reading uncertain) [Conjugate 214] | 230 nM
TCDINPAWCTGRGIRPVGRF-NH2 (linker 2-9 via L5; reading uncertain) [Conjugate 215] | 620 nM
TCDINPAWCTGRGIRPVGRF-NH2 (linker 2-9 via L3; reading uncertain) [Conjugate 213] | 33 nM
TPDINPCWYTGRGCRPVGRF-NH2 (linker 7-14 via L1; reading uncertain) [Conjugate 209] | 10 nM
TPCINPAWYCGRGIRPVGRF-NH2 (linker 3-10 via L1; reading uncertain) [Conjugate 205] | 21 nM
TPDICPAWYTGCGIRPVGRF-NH2 (linker 5-12 via L4; reading uncertain) [Conjugate 220] | 610 nM
TPDINCAWYTGRCIRPVGRF-NH2 (linker 6-13 via L1; reading uncertain) [Conjugate 208] | 15 nM
CRAHQHSCETRTPDINPAWYTGRGIRPVGRF-NH2 (linker 1-8 via L1; reading uncertain) [Conjugate 225] | 24 nM
TPDINPCWYTGRGCRPVGRF-NH2 (linker 7-14 via L3; reading uncertain) [Conjugate 222] | 5.2 nM
TPDCNPAWYTCRGIRPVGRF-NH2 (linker 4-11 via L5; reading uncertain) [Conjugate 218] | 81 nM
TPDINPCWYTGRGCRPVGRF-NH2 (linker 7-14 via L5; reading uncertain) [Conjugate 224] | > 1000 nM
TPDINPACYTGRGICPVGRF-NH2 (linker 8-15 via L1; reading uncertain) [Conjugate 210] | 720 nM
TPDCNPAWYTCRGIRPVGRF-NH2 (linker 4-11 via L3; reading uncertain) [Conjugate 216] | 3.9 nM

Other lines, results leading:

GPR10 EC50 | Binder
120 nM | TPDINPAWCTGRGIRCVGRF-NH2 (cysteine pairing not given here) [SEQ ID NO 87]
41 nM | SRAHQHSMCTRTPDICPAWYTGRGIRPVGRF-NH2 (cysteine pairing not given here) [SEQ ID NO 91]
18 nM | SRAHQHSMETRTCDINPAWCTGRGIRPVGRF-NH2 (cysteine pairing not given here) [SEQ ID NO 92]
630 nM | SRAHQHSMETRTCDINPAWCTGRGIRPVGRF-NH2 (linker 13-20 via L4; reading uncertain) [Conjugate 240]
230 nM | CRAHQHSCETRTPDINPAWYTGRGIRPVGRF-NH2 (linker 1-8 via L4; reading uncertain) [Conjugate 234]
17 nM | SRAHQHSMETRTPDCNPAWYTCRGIRPVGRF-NH2 (cysteine pairing not given here) [SEQ ID NO 93]
330 nM | CRAHQHSCETRTPDINPAWYTGRGIRPVGRF-NH2 (linker 1-8 via L5; reading uncertain) [Conjugate 235]
10 nM | SRAHQHSMETRTPDCNPAWYTCRGIRPVGRF-NH2 (linker 15-22 via L1; reading uncertain) [Conjugate 229]
10 nM | TPDCNPAWYTCRGIRPVGRF-NH2 (cysteine pairing not given here) [SEQ ID NO 105]
1600 nM | TPDINPAWYCGRGIRPCGRF-NH2 (cysteine pairing not given here) [SEQ ID NO 88]
13 nM | TPDINPAWYTGRGIRPVGRF-NH2 [SEQ ID NO 106]
6800 nM | TPDINPACYTGRGICPVGRF-NH2 (cysteine pairing not given here) [SEQ ID NO 86]
6.1 nM | SRAHQHSMETRTPDCNPAWYTCRGIRPVGRF-NH2 (linker 15-22 via L3; reading uncertain) [Conjugate 242]
1500 nM | SRAHQHSMETRTCDINPAWCTGRGIRPVGRF-NH2 (linker 13-20 via L5; reading uncertain) [Conjugate 241]
44 nM | TPDICPAWYTGCGIRPVGRF-NH2 (cysteine pairing not given here) [SEQ ID NO 83]
33 nM | TPDINPCWYTGRGCRPVGRF-NH2 (cysteine pairing not given here) [SEQ ID NO 85]
16 nM | TPCINPAWYCGRGIRPVGRF-NH2 (cysteine pairing not given here) [SEQ ID NO 104]
16 nM | CRAHQHSCETRTPDINPAWYTGRGIRPVGRF-NH2 (cysteine pairing not given here) [SEQ ID NO 89]
17 nM | CRAHQHSCETRTPDINPAWYTGRGIRPVGRF-NH2 (linker 1-8 via L3; reading uncertain) [Conjugate 233]
18 nM | TPDINCAWYTGRCIRPVGRF-NH2 (cysteine pairing not given here) [SEQ ID NO 84]
17 nM | SRAHQHSMETRTCDINPAWCTGRGIRPVGRF-NH2 (linker 13-20 via L3; reading uncertain) [Conjugate 239]
85 nM | SRAHQHSMCTRTPDICPAWYTGRGIRPVGRF-NH2 (linker 9-16 via L1; reading uncertain) [Conjugate 227]
40 nM | SRAHQHSMETRTCDINPAWCTGRGIRPVGRF-NH2 (linker 13-20 via L1; reading uncertain) [Conjugate 228]
33 nM | TCDINPAWCTGRGIRPVGRF-NH2 (cysteine pairing not given here) [SEQ ID NO 103]
